Data as given in patent publication US20040209330A1 (ZymoGenetics, published 2004).
Where “and” joins values, the source holds several entries; their conditions need not be identical. Equal entries are not always repeated.

Biological target: T1, CRF2-4/IL-22RA heterodimeric receptor on BaF3/CRF2-4/IL-22RA cells (human, UniProt Q08334 20-325, limits assumed)
T1 sequence 1: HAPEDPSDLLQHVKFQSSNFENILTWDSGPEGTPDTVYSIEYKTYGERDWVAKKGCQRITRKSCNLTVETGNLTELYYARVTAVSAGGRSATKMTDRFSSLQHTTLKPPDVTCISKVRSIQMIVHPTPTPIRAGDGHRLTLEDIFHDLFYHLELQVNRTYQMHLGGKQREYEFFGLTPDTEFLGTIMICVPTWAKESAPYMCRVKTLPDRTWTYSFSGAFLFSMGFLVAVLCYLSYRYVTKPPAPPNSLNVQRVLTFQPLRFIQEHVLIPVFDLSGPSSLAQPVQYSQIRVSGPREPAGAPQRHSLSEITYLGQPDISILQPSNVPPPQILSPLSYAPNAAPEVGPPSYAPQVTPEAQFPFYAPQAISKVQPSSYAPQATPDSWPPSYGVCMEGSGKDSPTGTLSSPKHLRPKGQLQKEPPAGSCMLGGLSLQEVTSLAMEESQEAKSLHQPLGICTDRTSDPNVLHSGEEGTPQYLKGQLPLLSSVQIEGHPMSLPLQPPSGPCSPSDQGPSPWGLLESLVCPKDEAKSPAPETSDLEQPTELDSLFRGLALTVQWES
T1 sequence 2: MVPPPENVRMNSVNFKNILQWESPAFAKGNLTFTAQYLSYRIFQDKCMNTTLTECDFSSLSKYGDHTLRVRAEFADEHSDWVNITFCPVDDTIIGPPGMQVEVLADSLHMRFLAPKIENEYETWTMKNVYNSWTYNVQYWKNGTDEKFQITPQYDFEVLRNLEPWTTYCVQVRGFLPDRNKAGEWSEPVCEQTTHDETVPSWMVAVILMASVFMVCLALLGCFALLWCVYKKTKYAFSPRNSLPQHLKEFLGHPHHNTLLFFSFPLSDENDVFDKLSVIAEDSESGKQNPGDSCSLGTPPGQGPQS
Test: cell-based or functional assay

B1: IL-22-CEE (human IL-22 polypeptide with C-terminal GluGlu (EE) tag, purified from BHK 570 cells) (ligand)
chain: LLLALLVQGGAAAPISSHCRLDKSNFQQPYITNRTFMLAKEASLADNNTDVRLIGEKLFHGVSMSERCYLMKQVLNFTLEEVLFPQSDRFQPYMQEVVPFLARLSNRLSTCHIEGDDLHIQRNVQKLKDTVKKLGESGEIKAIGELEYMPME
proliferation of BaF3/CRF2-4/IL-22RA cells (Alamar Blue): ~15 fold over background and 2 fold induction
